{
  "source": "the nanobody polyreactivity screen of Harvey et al. (2022)",
  "data": [
    {"test": "yeast display, Sf9 membrane polyspecificity reagent, FACS + sequencing; frameworks hold sequencing errors", "summary_of_the_method": "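In a synthetic yeast display library (Saccharomyces cerevisiae BJ5465), nanobody expression was induced with galactose for 36–48 hours. FACS gates were set low and high (top ~1%) using anti-HA fluorescence for expression and streptavidin fluorescence for binding of the Sf9 membrane reagent. Each polyreactivity label is drawn from the gate of origin.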", "values": [
      {"sequence": "QVQLVESGGGLVQAGGSLRLTCAASGIIFDTNAMGWYRQAPGKERELVATITQRGGTTYYADSVKGRFTISRDNAKNTVYLQMNSLKPEDTAVYYCNAGPVRLPYDSWGQGTQVTVSS", "polyreactivity (PSR sort gate)": "low polyreactivity"},
      {"sequence": "QVQLVESGGGLVQAGGSLRLTCAASGITFGVYAMGGYRQAPGKERELVAAITRGGRTYYADSVKGRFTISRDNAKNTVYLQMNSLKPVDTAVYYCAAGFWWSSYGYWGQGTQVTVSS", "polyreactivity (PSR sort gate)": "high polyreactivity"},
      {"sequence": "QVQLVESGGGLVQAGGSLRLTCAASGITFTIYAMGWYRLATGKERELVAAISWSGTSTYYADSVKGRFTISRDNAKNTVYLKMNSLKQEDTAVYYCAADYTTSQGDSELDYWGQGTQVTVSS", "polyreactivity (PSR sort gate)": "low polyreactivity"},
      {"sequence": "QVQLVESGGGLVQAGGSLRLTCAASGIYFTDYAMGWYRQAPGKERELVAAISGIGSTTYYADSVKGRFTISRDNAKNTVYLQMNSLKPEDTAVYYCNALLAYTYWYDYWGQGTQVSVSS", "polyreactivity (PSR sort gate)": "high polyreactivity"},
      {"sequence": "QVQLVESGGGLVQAGGSLRLTCAASGLIFGVYAMGWYRQAPGKEMELVAGISWRGSSTYYADSVKGRFTISRDYAKNTVYLQMNSLIPEDTAVYYCADVRRPSRHAYGGTAVYYWGQGTQVTVSS", "polyreactivity (PSR sort gate)": "high polyreactivity"},
      {"sequence": "QVQLVESGGGLVQAGGSLRLTCAASGLTFEYYAMGWYRQAPGKERELVARISKSGVGTNYADSVKGRFTISRDHAKNTVYLQMNSLKPEDNAVYSCAARKYHYGYGYWGQGTQVTVSS", "polyreactivity (PSR sort gate)": "high polyreactivity"},
      {"sequence": "QVQLVESGGGLVQAGGSLRLTCAASGNTFYPYAMGWYRQGPGKERELVAAITSSGGSTYYADSVKGRFTISRDNANNTVYLQMNSLKPEDTAVYYCAADPDWYSPFKYVYWGQGTQVTVSS", "polyreactivity (PSR sort gate)": "low polyreactivity"},
      {"sequence": "QVQLVESGGGLVQAGGSLRLTCAASGRIFAHYAMGWYRPAPGKERELVAAISSGGSTYYADSVKGRFTISRDNAKNTVYLLMNSLKPEDTAVYYCNKRPVRRKYDYWGQGTQVTVSS", "polyreactivity (PSR sort gate)": "low polyreactivity"},
      {"sequence": "QVQLVESGGGLVQAGGSLRLTCAASGRIFAYYAMGWSRQAPGKERELVAAISSGGTTNYADSVKGRFTISRDNAKNTVYLQLTSLKPEDTAVYYCNADGWRRSRQYYYWGQGTQVTVSS", "polyreactivity (PSR sort gate)": "low polyreactivity"},
      {"sequence": "QVQLVESGGGLVQAGGSLRLTCAASGRIFGLYAMGWSRQAPGKERELVAAISVISTGTYYADSVKGRFTISRDNAKNTVYLQMNSLKPEDTAVYYCNADSGQYTPPESDYWGQGTQVTVSS", "polyreactivity (PSR sort gate)": "low polyreactivity"},
      {"sequence": "QVQLVESGGGLVQAGGSLRLTCAASGRIFGRYAMGWYRQAPAKERELVATITYSGGTTYYADSVKGRFTISRDNAKNTVYLQMNSLKPEDTAVYYCNARSGRQLARYGYWGQGTQVTVSS", "polyreactivity (PSR sort gate)": "high polyreactivity"},
      {"sequence": "QVQLVESGGGLVQAGGSLRLTCAASGRIFGWYAMGWYRQAPGKEREFVAAITVTGGSTYYADSVKGRFTISRDNAKNTVYLQMNSLKPEDTAVYYCAADRWYTRTGFDYWGQGTQVTVSS", "polyreactivity (PSR sort gate)": "low polyreactivity"},
      {"sequence": "QVQLVESGGGLVQAGGSLRLTCAASGRIFIGNAMGWYRQAPGKERELVAAISSGGSTDYADSVKGRFTISRDNAKNTVYLQMNSLKPEDTAVYYCNADYEGYYDYGYWGQGTQVTVSS", "polyreactivity (PSR sort gate)": "low polyreactivity"},
      {"sequence": "QVQLVESGGGLVQAGGSLRLTCAASGRIFIYYAMGWYRQAPGKERELVAAISWGGGRTYYADSVKGRFTISRDNAKNTVYLQINSLKPEDTAVYYCAAGVYTGQHEYDYWGQGTQVTVSS", "polyreactivity (PSR sort gate)": "low polyreactivity"},
      {"sequence": "QVQLVESGGGLVQAGGSLRLTCAASGRIFRKYAMGWYRQAPGKERELVAAISNGGSTNYADSVKGRFTISRDNAKNTVYLQMNSLKPEDTAVYYCAASYRIYRGDSTGFGYWGQGTQVTVSS", "polyreactivity (PSR sort gate)": "high polyreactivity"},
      {"sequence": "QVQLVESGGGLVQAGGSLRLTCAASGRIFSRNTMGWYRQAPGKERELVATISWSGSRTYYADSVKGRFTISRDNAKNTVYLQMNSLKPEDTAVYYCAAVVPLSRSYDYYYWGQGTQVTVSS", "polyreactivity (PSR sort gate)": "high polyreactivity"},
      {"sequence": "QVQLVESGGGLVQAGGSLRLTCAASGRIFTVYAMGWYRQAPGKERELVAAIDFSDGTTYYADSVKGRFTISRDNAKNTVYLQMNSLKPEDTAVYYCAAEGGSALDDDYWGQGTQVTVSS", "polyreactivity (PSR sort gate)": "high polyreactivity"},
      {"sequence": "QVQLVESGGGLVQAGGSLRLTCAASGRIFYKYVMGWYRQAPGKERELVATITSGGSTYYADSVKGRFTISRDNAKNTVYLHMNSLKPEDTAVYYCAARKYYSRAYDYWGQGTQVTVSS", "polyreactivity (PSR sort gate)": "high polyreactivity"},
      {"sequence": "QVQLVESGGGLVQAGGSLRLTCAASGRIFYNYAMGWYRQAPGKERELLAAISGSGGSTYYADSVKGRFTISRDNAKNSVYLQMNSLKPEDTAVYYCSTSCPQYYSRNFDYWGQGTQVTVSS", "polyreactivity (PSR sort gate)": "low polyreactivity"},
      {"sequence": "QVQLVESGGGLVQAGGSLRLTCAASGRILVLNAMGWYRQAPGKERELVADITSGGSTYFADSVKGRFTISRDNAKNTVYLQMNSLKPEDTAVYYCAADWNTYPDYQQSYFVSYEYNYWGQGTQVTVSS", "polyreactivity (PSR sort gate)": "low polyreactivity"},
      {"sequence": "QVQLVESGGGLVQAGGSLRLTCAASGRILYSYAMGWYRQEPGKERELVAAISGSGGSTYYADSVKGRFTISRDNSKNTVYLQMNMLKPEDTAVYYCAARDLYRYRPQGLGSSQRYYYWGQGTQVTVSS", "polyreactivity (PSR sort gate)": "high polyreactivity"},
      {"sequence": "QVQLVESGGGLVQAGGSLRLTCAASGRISGYNMGWYRQAPGKERELVAGIDYSGGSTYYADSVKGRFTISRDNAKYNVSLQMTSLKPEDTAVYDCNAVYARKYYYSHGYDYWGQGTQVTVSS", "polyreactivity (PSR sort gate)": "high polyreactivity"},
      {"sequence": "QVQLVESGGGLVQAGGSLRLTCAASGRISRYYAMGWYRQAPGKERELVATITFSGGSTYYADSVKGRFTISRDNAKNTVYLQMNSLKPEDTAVYYCAKQRGGAYLVPWYGYWGQGTQVTVSS", "polyreactivity (PSR sort gate)": "high polyreactivity"},
      {"sequence": "QVQLVESGGGLVQAGGSLRLTCAASGRNFSQNAMGWYRQAPGKERELVAAISVTGGRTYYADSVKGRFTISRDNAKNTVYLQMNSLKPEDTAVYYCAKRTRSPGYYYWGQGTQVTVSS", "polyreactivity (PSR sort gate)": "high polyreactivity"},
      {"sequence": "QVQLVESGGGLVQAGGSLRLTCAASGRTFDYNAMGWYIQAPGKERELVAAISQSGGRTYYADSVKGRFTISRDHAKNTVYLQMNSLKPEDTAVYYCAAEAYGNRDYWGQGTQVTVSS", "polyreactivity (PSR sort gate)": "low polyreactivity"},
      {"sequence": "QVQLVESGGGLVQAGGSLRLTCAASGRTFGDNAMGWYRQAPWKERELVAAITSGASTYYADAVKGRFTISRDNAMNTVYLQMNSLKPEDTAVYYCADDQGDWNGYGFDYWGQGTQVTVSS", "polyreactivity (PSR sort gate)": "low polyreactivity"},
      {"sequence": "QVQLVESGGGLVQAGGSLRLTCAASGRTFGYYTMGWYRQAPGKERELVATISSDGTTNYADSVKGRFTISRDNAKNTVYLQMNSLKPEDTAVYYCNADFRLQYYYRIYDYWGQGTQVTVSS", "polyreactivity (PSR sort gate)": "low polyreactivity"},
      {"sequence": "QVQLVESGGGLVQAGGSLRLTCAASGRTFKFNAMGWDRQAPGKERELVAGITWTGSTTSYADSVKGRFTISRDNAKNTVYLQMNSLKPEDTSVYYCAADKIRFWYHGFYYRGQGTQVTVSS", "polyreactivity (PSR sort gate)": "low polyreactivity"},
      {"sequence": "QVQLVESGGGLVQAGGSLRLTCAASGRTFNIYAMGWYRQAPGKERELVAAITSGGSTNYADSVKGRFTISRDNAKNTVYLQMNSLKPEDTAVYYCNARYFRGYDYWGQGTQVTVSS", "polyreactivity (PSR sort gate)": "high polyreactivity"},
      {"sequence": "QVQLVESGGGLVQAGGSLRLTCAASGRTFPSYTMGWYRQAPGKERELVAAITWSGGSTYADSVKGRFSISRDNAKNTVYLQMKSLKPEDSAVYYCNAPIIAYDDGGSLVRYGRGDYWGQGTQVTVSS", "polyreactivity (PSR sort gate)": "low polyreactivity"},
      {"sequence": "QVQLVESGGGLVQAGGSLRLTCAASGRTFRGYVKAWSRQAPGKERELVAAISWSGGSTYYADSVKGRFTISRDNAKNSVYLQMKSLKPEDTAVYYCAARRYSYVGGQGSDYWGQGTLVTVSS", "polyreactivity (PSR sort gate)": "high polyreactivity"},
      {"sequence": "QVQLVESGGGLVQAGGSLRLTCAASGRTFRVYAMGWYRQAPGKERELVATITSSGGSTYYADSVKGRFTISRDNAKKTVYLQMNSLKREDTAVYYCNVSVYYNYDSSYDYWGQGTQVTVSS", "polyreactivity (PSR sort gate)": "low polyreactivity"},
      {"sequence": "QVQLVESGGGLVQAGGSLRLTCAASGRTFSKYAMGWYRQATGKERELVAAITSGGGTYYADSVKGRFTISRDNAKNTVYLQMNSLNPEDTAVYYCAVSVTTVSTYDYWGQGTQVTVSS", "polyreactivity (PSR sort gate)": "low polyreactivity"},
      {"sequence": "QVQLVESGGGLVQAGGSLRLTCAASGRTFTLNAMGWYRQAPGKERELVADIRRRGGSTYYADSVKGRFTISRDNAKNTVYVQMNSRKAADTAVYYCATHGRWYKLPTGWRPYDYWGLGTQVTVSS", "polyreactivity (PSR sort gate)": "high polyreactivity"},
      {"sequence": "QVQLVESGGGLVQAGGSLRLTCAASGRTFVTNAMGWYRQAPGKERELVAAISWSGGDTYYADSVKGRFTISRDNAKYTVYLEMNSLKPEDTAVYYCAAYFWGVYFFGMDYWGQGTLVTVSS", "polyreactivity (PSR sort gate)": "low polyreactivity"},
      {"sequence": "QVQLVESGGGLVQAGGSLRLTCAASGRTFYINAMGWYRQAPGKERELVAAISSGGSTNYADSVKGRFTISRDNAKNTVSLQMNSLKPEDTAVYYCNARLRSFTLSDAEYEYWGQGTQVTVSS", "polyreactivity (PSR sort gate)": "low polyreactivity"},
      {"sequence": "QVQLVESGGGLVQAGGSLRLTCAASGRTLRLYPMGWYRQAPGKERELVAAISRSGSSTYADSVKGRFTISRDNAKNTVYLQMYSLKPEDTAVYYCNAYQPRYGYWGQGTQVTVSS", "polyreactivity (PSR sort gate)": "high polyreactivity"},
      {"sequence": "QVQLVESGGGLVQAGGSLRLTCAASGSIFCAYTMGWSRQAPGKECDLVAAISASGGSTYYADSVKGRFTISRDNAKNTVYLQMNSLNPDDTAVYYCAAVYDLGYYGPIWAIVLDDYWGQGTQVTVSS", "polyreactivity (PSR sort gate)": "low polyreactivity"},
      {"sequence": "QVQLVESGGGLVQAGGSLRLTCAASGSIFDFYAMGRYRQAPGQERELVAAISGSGGSTYYADSVKGRFTISRDNGKNTVYFQMDSLKPEDTAVYYCSYYYWGQGTQVNVSS", "polyreactivity (PSR sort gate)": "low polyreactivity"},
      {"sequence": "QVQLVESGGGLVQAGGSLRLTCAASGSIFFDYGMGWYRQAPGKERELVATITRGTGSTYYADSVKGRFTISRDNAKNTVSLQMNSLKPEDTAVYYCAESYSYYNSYDYWGQGTQVTVSS", "polyreactivity (PSR sort gate)": "high polyreactivity"},
      {"sequence": "QVQLVESGGGLVQAGGSLRLTCAASGSIFGNAMGWYREAPGKEREIVAAISSSGSSTYYADSVKGRFTMSRDTAKNTVYLQMNSLKPADTAVYYCNKGSRRYHGYDYWGQGTQVTVSS", "polyreactivity (PSR sort gate)": "high polyreactivity"},
      {"sequence": "QVQLVESGGGLVQAGGSLRLTCAASGSIFKTNAMGWYRQAPGKERELVAAIRASGGSTYYADSVKGRFTISRDNAKNTVYLQMNSLKPEDTAVYYCAARYWFKYYWGQGTQVTVSS", "polyreactivity (PSR sort gate)": "low polyreactivity"},
      {"sequence": "QVQLVESGGGLVQAGGSLRLTCAASGSIFSYYAMGWYRQAPGKERELVADISFTGDSTFYADSVKGRFTISRDNAKNTVYLQMNSLKPEDTADYYCAKDEIMAVYFEYDYWGQGTQVTVSS", "polyreactivity (PSR sort gate)": "low polyreactivity"}
    ]}
  ]
}
